Source: patent US20260167699A1 (Chugai, published 2026)
Residue numbers refer to the chain shown, from its start.

T1: FcγRIIa(R) (human, UniProt P12318 34-217)
T1 construct: extracellular domain; also called 2aR
T1 sequence: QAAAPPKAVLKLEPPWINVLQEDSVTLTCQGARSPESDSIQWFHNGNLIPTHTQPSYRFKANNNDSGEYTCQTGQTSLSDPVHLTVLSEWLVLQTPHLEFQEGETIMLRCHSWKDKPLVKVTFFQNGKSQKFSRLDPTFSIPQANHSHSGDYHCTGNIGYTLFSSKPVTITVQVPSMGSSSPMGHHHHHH

T2: FcγRIIa(H) (human, UniProt P12318 34-217)
T2 construct: extracellular domain; also called 2aH
T2 sequence: T1 sequence with R134H

T3: FcγRIIb (human, UniProt P31994 43-217)
T3 construct: extracellular domain; also called 2b
T3 sequence: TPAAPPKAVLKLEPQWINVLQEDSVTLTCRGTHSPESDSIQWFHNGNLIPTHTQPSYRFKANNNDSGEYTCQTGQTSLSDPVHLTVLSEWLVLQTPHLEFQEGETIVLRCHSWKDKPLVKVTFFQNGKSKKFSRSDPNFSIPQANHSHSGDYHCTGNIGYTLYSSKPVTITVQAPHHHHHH

B1: GpH7-A5/GpH7-B3 variant K326_01G/GpL16-k0 (antibody, human IgG1, kappa)
heavy 1: not shown
heavy 2: not shown
light: DIVMTQSPLSLPVTPGEPASISCQASESLVHSNRNTYLHWYLQKPGQSPQLLIYKVSNRFSGVPDRFSGSGSGTDFTLKISRVEAEDVGVYYCSQNTHVPPTFGQGTKVEIERTVAAPSVFIFPPSDEQLKSGTASVVCLLNNFYPREAKVQWKVDNALQSGNSQESVTEQDSKDSTYSLSSTLTLSKADYEKHKVYACEVTHQGLSSPVTKSFNRGEC
notes: He Ab: heterodimerized IgG1, one H chain mutated
B2: GpH7-A5/GpH7-B3 variant K326_08L/GpL16-k0 (antibody, human IgG1, kappa)
heavy 1: not shown
heavy 2: not shown
light: B1 light
notes: as for B1
B3: GpH7-A5/GpH7-B3 variant K326_09D/GpL16-k0 (antibody, human IgG1, kappa)
heavy 1: not shown
heavy 2: not shown
light: B1 light
notes: as for B1
B4: GpH7-A5/GpH7-B3 variant L328_15Y/GpL16-k0 (antibody, human IgG1, kappa)
heavy 1: not shown
heavy 2: not shown
light: B1 light
notes: as for B1
B5: GpH7-A5/GpH7-B3 variant L328_14T/GpL16-k0 (antibody, human IgG1, kappa)
heavy 1: not shown
heavy 2: not shown
light: B1 light
notes: as for B1
B6: GpH7-A5/GpH7-B3 variant K326_04F/GpL16-k0 (antibody, human IgG1, kappa)
heavy 1: not shown
heavy 2: not shown
light: B1 light
notes: as for B1
B7: GpH7-A5/GpH7-B3 variant K326_05P/GpL16-k0 (antibody, human IgG1, kappa)
heavy 1: not shown
heavy 2: not shown
light: B1 light
notes: as for B1
B8: GpH7-A5/GpH7-B3 variant L328_13S/GpL16-k0 (antibody, human IgG1, kappa)
heavy 1: not shown
heavy 2: not shown
light: B1 light
notes: as for B1
B9: GpH7-A5/GpH7-B3 variant K326_12R/GpL16-k0 (antibody, human IgG1, kappa)
heavy 1: not shown
heavy 2: not shown
light: B1 light
notes: as for B1
B10: GpH7-A5/GpH7-B3 variant K326_19Q/GpL16-k0 (antibody, human IgG1, kappa)
heavy 1: not shown
heavy 2: not shown
light: B1 light
notes: as for B1
B11: GpH7-A5/GpH7-B3 variant K326_14T/GpL16-k0 (antibody, human IgG1, kappa)
heavy 1: not shown
heavy 2: not shown
light: B1 light
notes: as for B1
B12: GpH7-A5/GpH7-B3 variant L328_19Q/GpL16-k0 (antibody, human IgG1, kappa)
heavy 1: not shown
heavy 2: not shown
light: B1 light
notes: as for B1
B13: GpH7-A5/GpH7-B3 variant K326_13S/GpL16-k0 (antibody, human IgG1, kappa)
heavy 1: not shown
heavy 2: not shown
light: B1 light
notes: as for B1
B14: GpH7-A5/GpH7-B3 variant L328_16H/GpL16-k0 (antibody, human IgG1, kappa)
heavy 1: not shown
heavy 2: not shown
light: B1 light
notes: as for B1
B15: GpH7-A5/GpH7-B3 variant L328_04F/GpL16-k0 (antibody, human IgG1, kappa)
heavy 1: not shown
heavy 2: not shown
light: B1 light
notes: as for B1
B16: GpH7-A5/GpH7-B3 variant K326_02A/GpL16-k0 (antibody, human IgG1, kappa)
heavy 1: not shown
heavy 2: not shown
light: B1 light
notes: as for B1
B17: GpH7-A5/GpH7-B3 variant L328_02A/GpL16-k0 (antibody, human IgG1, kappa)
heavy 1: not shown
heavy 2: not shown
light: B1 light
notes: as for B1
B18: GpH7-A5/GpH7-B3 variant L328_06M/GpL16-k0 (antibody, human IgG1, kappa)
heavy 1: not shown
heavy 2: not shown
light: B1 light
notes: as for B1
B19: GpH7-A5/GpH7-B3 variant K326_06M/GpL16-k0 (antibody, human IgG1, kappa)
heavy 1: not shown
heavy 2: not shown
light: B1 light
notes: as for B1
B20: GpH7-A5/GpH7-B3 variant L328_03V/GpL16-k0 (antibody, human IgG1, kappa)
heavy 1: not shown
heavy 2: not shown
light: B1 light
notes: as for B1
B21: GpH7-A5/GpH7-B3 variant K326_20W/GpL16-k0 (antibody, human IgG1, kappa)
heavy 1: not shown
heavy 2: not shown
light: B1 light
notes: as for B1
B22: GpH7-A5/GpH7-B3 variant L328_18N/GpL16-k0 (antibody, human IgG1, kappa)
heavy 1: not shown
heavy 2: not shown
light: B1 light
notes: as for B1
B23: GpH7-A5/GpH7-B3 variant K326_03V/GpL16-k0 (antibody, human IgG1, kappa)
heavy 1: not shown
heavy 2: not shown
light: B1 light
notes: as for B1
B24: GpH7-A5/GpH7-B3 variant K326_15Y/GpL16-k0 (antibody, human IgG1, kappa)
heavy 1: not shown
heavy 2: not shown
light: B1 light
notes: as for B1
B25: GpH7-A5/GpH7-B3 variant L328_07I/GpL16-k0 (antibody, human IgG1, kappa)
heavy 1: not shown
heavy 2: not shown
light: B1 light
notes: as for B1
B26: GpH7-A5/GpH7-B3 variant K326_10E/GpL16-k0 (antibody, human IgG1, kappa)
heavy 1: not shown
heavy 2: not shown
light: B1 light
notes: as for B1
B27: GpH7-A5/GpH7-B3 variant K326_07I/GpL16-k0 (antibody, human IgG1, kappa)
heavy 1: not shown
heavy 2: not shown
light: B1 light
notes: as for B1
B28: GpH7-A5/GpH7-B3 variant K326_18N/GpL16-k0 (antibody, human IgG1, kappa)
heavy 1: not shown
heavy 2: not shown
light: B1 light
notes: as for B1
B29: GpH7-A5/GpH7-B3 variant K326_16H/GpL16-k0 (antibody, human IgG1, kappa)
heavy 1: not shown
heavy 2: not shown
light: B1 light
notes: as for B1

molecular target: T4, FcγRIa (human, UniProt P12314 16-292); test: SPR, relative to GpH7-A5/GpH7-B3/GpL16-k0 =100
T4 construct: extracellular domain; also called 1a
T4 sequence (P12314 other isoform, or with tags, fused parts or gaps): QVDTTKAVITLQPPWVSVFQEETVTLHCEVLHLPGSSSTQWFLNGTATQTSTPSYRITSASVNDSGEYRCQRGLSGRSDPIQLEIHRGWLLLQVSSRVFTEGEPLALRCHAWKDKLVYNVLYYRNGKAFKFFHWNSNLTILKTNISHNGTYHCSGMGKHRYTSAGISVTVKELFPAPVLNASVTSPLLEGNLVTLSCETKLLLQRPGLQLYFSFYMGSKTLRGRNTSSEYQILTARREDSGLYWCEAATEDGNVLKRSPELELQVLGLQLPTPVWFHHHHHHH

Row | Binder | He/Con 1a
1 | B1 | 106%
2 | B2 | 105%
3 | B3 | 109%
4 | B4 | 104%
5 | B5 | 103%
6 | B6 | 107%
7 | B7 | 106%
8 | B8 | 101%
9 | B9 | 105%
10 | B10 | 108%
11 | B11 | 109%
12 | B12 | 104%
13 | B13 | 106%
14 | B14 | 98.5%
15 | B15 | 100%
16 | B16 | 107%
17 | B17 | 101%
18 | B18 | 101%
19 | B19 | 108%
20 | B20 | 103%
21 | B21 | 108%
22 | B22 | 101%
23 | B23 | 107%
24 | B24 | 111%
25 | B25 | 102%
26 | B26 | 109%
27 | B27 | 106%
28 | B28 | 110%
29 | B29 | 109%

molecular target: T1, FcγRIIa(R); test: SPR, relative to GpH7-A5/GpH7-B3/GpL16-k0 =100

Row | Binder | He/Con 2aR
30 | B1 | 108%
31 | B2 | 131%
32 | B3 | 142%
33 | B4 | 174%
34 | B5 | 153%
35 | B6 | 129%
36 | B7 | 118%
37 | B8 | 150%
38 | B9 | 98.6%
39 | B10 | 124%
40 | B11 | 128%
41 | B12 | 115%
42 | B13 | 119%
43 | B14 | 106%
44 | B15 | 177%
45 | B16 | 125%
46 | B17 | 150%
47 | B18 | 148%
48 | B19 | 132%
49 | B20 | 150%
50 | B21 | 125%
51 | B22 | 76.4%
52 | B23 | 135%
53 | B24 | 131%
54 | B25 | 160%
55 | B26 | 142%
56 | B27 | 141%
57 | B28 | 110%
58 | B29 | 115%

molecular target: T2, FcγRIIa(H); test: SPR, relative to GpH7-A5/GpH7-B3/GpL16-k0 =100

Row | Binder | He/Con 2aH
59 | B1 | 105%
60 | B2 | 96.5%
61 | B3 | 115%
62 | B4 | 106%
63 | B5 | 138%
64 | B6 | 101%
65 | B7 | 103%
66 | B8 | 146%
67 | B9 | 105%
68 | B10 | 106%
69 | B11 | 119%
70 | B12 | 103%
71 | B13 | 110%
72 | B14 | 84.5%
73 | B15 | 84.9%
74 | B16 | 110%
75 | B17 | 154%
76 | B18 | 122%
77 | B19 | 108%
78 | B20 | 116%
79 | B21 | 86.7%
80 | B22 | 80.6%
81 | B23 | 101%
82 | B24 | 102%
83 | B25 | 111%
84 | B26 | 106%
85 | B27 | 104%
86 | B28 | 113%
87 | B29 | 102%

molecular target: T3, FcγRIIb; test: SPR, relative to GpH7-A5/GpH7-B3/GpL16-k0 =100

Row | Binder | He/Con 2b
88 | B1 | 119%
89 | B2 | 198%
90 | B3 | 216%
91 | B4 | 240%
92 | B5 | 176%
93 | B6 | 174%
94 | B7 | 141%
95 | B8 | 186%
96 | B9 | 100%
97 | B10 | 156%
98 | B11 | 168%
99 | B12 | 131%
100 | B13 | 139%
101 | B14 | 100%
102 | B15 | 273%
103 | B16 | 156%
104 | B17 | 180%
105 | B18 | 176%
106 | B19 | 185%
107 | B20 | 157%
108 | B21 | 166%
109 | B22 | 101%
110 | B23 | 196%
111 | B24 | 179%
112 | B25 | 200%
113 | B26 | 224%
114 | B27 | 223%
115 | B28 | 118%
116 | B29 | 133%
